# Measured values: article PMC6750902
# T1: NmeCas9 (Neisseria meningitidis, UniProt C9X1G5 1-1082)
# T1 sequence: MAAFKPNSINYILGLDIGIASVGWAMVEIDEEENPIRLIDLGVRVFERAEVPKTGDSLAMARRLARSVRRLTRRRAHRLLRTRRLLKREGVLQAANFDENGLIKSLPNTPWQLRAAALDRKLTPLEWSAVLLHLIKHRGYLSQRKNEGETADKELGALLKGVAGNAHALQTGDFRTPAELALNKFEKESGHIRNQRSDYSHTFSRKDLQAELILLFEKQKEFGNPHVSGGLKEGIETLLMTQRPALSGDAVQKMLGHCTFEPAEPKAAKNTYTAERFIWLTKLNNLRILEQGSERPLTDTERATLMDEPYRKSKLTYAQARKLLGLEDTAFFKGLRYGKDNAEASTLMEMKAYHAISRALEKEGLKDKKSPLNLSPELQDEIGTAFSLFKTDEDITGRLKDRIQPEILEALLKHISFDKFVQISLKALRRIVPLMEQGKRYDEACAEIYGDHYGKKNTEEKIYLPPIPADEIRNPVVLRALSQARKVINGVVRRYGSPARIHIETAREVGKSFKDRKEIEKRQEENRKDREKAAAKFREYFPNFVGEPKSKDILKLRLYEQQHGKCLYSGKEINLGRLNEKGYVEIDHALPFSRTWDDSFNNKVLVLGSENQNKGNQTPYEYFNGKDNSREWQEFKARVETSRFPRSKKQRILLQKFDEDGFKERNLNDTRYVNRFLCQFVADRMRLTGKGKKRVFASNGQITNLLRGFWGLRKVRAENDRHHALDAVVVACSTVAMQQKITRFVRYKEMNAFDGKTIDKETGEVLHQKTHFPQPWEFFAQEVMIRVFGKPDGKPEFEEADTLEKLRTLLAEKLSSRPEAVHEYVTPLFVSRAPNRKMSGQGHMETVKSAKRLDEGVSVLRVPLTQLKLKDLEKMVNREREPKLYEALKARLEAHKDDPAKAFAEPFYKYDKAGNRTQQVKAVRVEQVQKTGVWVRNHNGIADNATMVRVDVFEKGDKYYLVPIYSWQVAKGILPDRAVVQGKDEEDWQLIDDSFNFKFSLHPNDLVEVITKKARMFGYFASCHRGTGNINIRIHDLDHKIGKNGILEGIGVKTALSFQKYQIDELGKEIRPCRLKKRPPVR
# Columns and labels:
# [1] = molecular target: Anti-CRISPR protein AcrIIC2; experiment: AUC
# [2] = molecular target: Neisseria meningitidis Cas9 (NmeCas9), full length (Neisseria meningitidis) (UniProt C9X1G5); experiment: SEC + other: quantitative SDS-PAGE against standards
# NmeCas9 = molecular target: T1, NmeCas9; experiment: DRaCALA
molecule,measurement,setting,value
Anti-CRISPR protein AcrIIC2 (natural protein),stoichiometry N,[1],2
Anti-CRISPR protein AcrIIC3 (natural protein),stoichiometry N (AcrIIC3 per Cas9 (printed as 2:2)),[2],1
"NmeCas9 sgRNA, 94 nt (binding assay) (structured_RNA) RNA: GGCUCCUCAGAUGUAGUAUUCAGAGUUGUAGCUCCCUUUCUGAAAAGAACCGUUGCUACAAUAAGGCCGUCUGAAAAGAUGUGCCGCAACGCUC",Kd,NmeCas9,1.66 nM
